The source of these data is the Immune Epitope Database (IEDB).

One test concerns the target HLA-A*02:06. Briefly: IEDB peptide-MHC binding, purified MHC/competitive/fluorescence; filed as Kd, often an IC50 or EC50 that approximates it; ≥ and ≤ were set here for values at or beyond the usual limits of such assays.
For test [1], the target named is HLA-A*68:02. The description is as above. The note with it: source organism: Vaccinia virus Copenhagen.
The target in test [2] is HLA-B*15:01. The test is described as above.
In test [3] the target is HLA-B*08:01. Described as above. The note with it: source organism: Vaccinia virus Copenhagen.
The target in test [4] is HLA-B*18:01. The test is described as above. The note with it: source organism: Vaccinia virus Copenhagen.
In another test the target is HLA-A*26:02. The test is described as above.
The next test concerns the target HLA-B*15:17. Described as above.
For the next test, the target named is HLA-A*26:03. Described as above. Conditions: source organism: Vaccinia virus Copenhagen.
Test [5] concerns the target HLA-A*02:01. The description is as above. Conditions: source organism: Vaccinia virus Copenhagen.
A further test concerns the target HLA-A*31:01. Briefly: IEDB peptide-MHC binding, purified MHC/direct/fluorescence; filed as Kd, often an IC50 or EC50 that approximates it; ≥ and ≤ were set here for values at or beyond the usual limits of such assays.
In test [6] the target is HLA-B*07:02. Described as above.
A further test deals with HLA-B*57:01. Described as above.
Another test concerns the target HLA-A*03:01. The test is described as above.
The next test has as its target HLA-B*58:01. The test is described as above.
The target of another test is HLA-B*46:01. Described as above.
For a further test, the target named is HLA-A*69:01. The test is described as above.
In test [7] the target is HLA-B*48:01. The test is described as above. Conditions: source organism: Camelpox virus M-96.
The target in the next test is HLA-B*40:01. Described as above.
For test [8], the target named is HLA-A*01:01. The description is as above. Conditions: source organism: Camelpox virus M-96.
In another test the target is HLA-A*11:01. Described as above.
For test [9], the target named is HLA-B*48:01. The test is described as follows: IEDB peptide-MHC binding, purified MHC/competitive/fluorescence; filed as Kd, often an IC50 or EC50 that approximates it; ≥ and ≤ were set here for values at or beyond the usual limits of such assays. The note with it: source organism: Giardia lamblia ATCC 50803.
For a further test, the target named is HLA-A*02:50. The test is described as above.
The next test deals with HLA-B*44:02. The test is described as follows: IEDB peptide-MHC binding, purified MHC/direct/fluorescence; filed as Kd, often an IC50 or EC50 that approximates it; ≥ and ≤ were set here for values at or beyond the usual limits of such assays. The note with it: source organism: Escherichia coli O157:H7.
Another test has as its target HLA-B*27:05. The description is as above. Conditions: source organism: Escherichia coli O157:H7.
For test [10], the target named is HLA-B*15:01. The description is as above. The note with it: source organism: Escherichia coli O157:H7.
Test [11] concerns the target HLA-A*24:02. The description is as above. Conditions: source organism: Escherichia coli O157:H7.
The target of test [12] is HLA-A*02:01. The test is described as above.
Test [13] addresses HLA-A*24:02. Briefly: IEDB peptide-MHC binding, purified MHC/competitive/fluorescence; filed as Kd, often an IC50 or EC50 that approximates it; ≥ and ≤ were set here for values at or beyond the usual limits of such assays.
A further test has as its target HLA-C*07:02. Briefly: IEDB peptide-MHC binding, purified MHC/direct/fluorescence; filed as Kd, often an IC50 or EC50 that approximates it; ≥ and ≤ were set here for values at or beyond the usual limits of such assays.
The target of a further test is HLA-C*05:01. Described as above. Conditions: source organism: Mycobacterium tuberculosis C.
Another test concerns the target HLA-A*24:03. Described as above.
Another test has as its target HLA-C*04:01. The test is described as above.
Test [14] addresses HLA-A*24:02. Briefly: IEDB peptide-MHC binding, purified MHC/competitive/fluorescence; ≥ and ≤ were set here for values at or beyond the usual limits of such assays. The note with it: source organism: Bos taurus.
The target of a further test is HLA-B*35:01. The test is described as above. Conditions: source organism: Bos taurus.
For test [15], the target named is HLA-B*07:02. The test is described as follows: IEDB peptide-MHC binding, purified MHC/competitive/fluorescence; filed as Kd, often an IC50 or EC50 that approximates it; ≥ and ≤ were set here for values at or beyond the usual limits of such assays.
For the next test, the target named is HLA-C*12:03. Briefly: IEDB peptide-MHC binding, purified MHC/direct/fluorescence; filed as Kd, often an IC50 or EC50 that approximates it; ≥ and ≤ were set here for values at or beyond the usual limits of such assays. Conditions: source organism: Coxiella burnetii RSA 331.
The target of test [16] is HLA-A*01:01. The test is described as follows: IEDB peptide-MHC binding, purified MHC/competitive/fluorescence; filed as Kd, often an IC50 or EC50 that approximates it; ≥ and ≤ were set here for values at or beyond the usual limits of such assays. The note with it: source organism: Vaccinia virus Tian Tan.
Test [17] addresses HLA-A*68:02. Briefly: IEDB peptide-MHC binding, purified MHC/direct/fluorescence; filed as Kd, often an IC50 or EC50 that approximates it; ≥ and ≤ were set here for values at or beyond the usual limits of such assays. The note with it: source organism: Camelpox virus CMS.
The target in another test is HLA-A*26:01. The description is as above. The note with it: source organism: Variola virus.
Test [18] has as its target HLA-B*08:01. Described as above. The note with it: source organism: Variola virus.
Test [19] concerns the target HLA-B*18:01. Described as above. The note with it: source organism: Camelpox virus CMS.
For a further test, the target named is HLA-B*08:02. Described as above. Conditions: source organism: Variola virus.
The mark [20] stands for this setting: source organism: Vaccinia virus Copenhagen.
Where [21] appears, read: source organism: Camelpox virus M-96.
[22] abbreviates: source organism: Escherichia coli O157:H7.
Setting [23] is: source organism: West Nile virus.
[24] abbreviates: source organism: Coxiella burnetii.
The mark [25] stands for this setting: source organism: Vaccinia virus Tian Tan.
The mark [26] stands for this setting: source organism: Camelpox virus CMS.
The mark [27] stands for this setting: source organism: Tokudaia muenninki.

Where only a bound is given, the exact number is not on record here.

On to ALYSYASAK, for which the Kd is 0.271 µM with HLA-A*02:06 (setting [20]); at least 20 µM with HLA-A*68:02 [1]; at least 20 µM in the test with HLA-B*15:01 [2] (setting [20]); at least 20 µM with HLA-B*08:01 [3]; at least 20 µM in the test with HLA-B*18:01 [4]; at least 20 µM with HLA-A*26:02 (setting [20]). Moreover, the Kd is at least 20 µM in the test with HLA-B*15:17 (setting [20]); 0.494 µM with HLA-A*26:03; 0.0563 µM with HLA-A*02:01 [5]; 0.106 µM in the test with HLA-A*31:01 (setting [21]); at least 20 µM with HLA-B*07:02 [6] (setting [21]); at least 20 µM with HLA-B*57:01 (setting [21]). Further, the dissociation constant Kd with HLA-A*03:01 (setting [21]) is 0.0395 µM; in the test with HLA-B*58:01 (setting [21]) it was at least 20 µM; with HLA-B*46:01 (setting [21]), at least 20 µM; with HLA-A*69:01 (setting [21]) it was at least 20 µM; in the test with HLA-B*48:01 [7] it was at least 20 µM; with HLA-B*40:01 (setting [21]), at least 20 µM. The dissociation constant (Kd) is at least 20 µM with HLA-A*01:01 [8] and 0.0117 µM with HLA-A*11:01 (setting [21]).
Consider GMYGHPFAL, for which the Kd with HLA-B*48:01 [9] is 0.0283 µM.
Take LLDPLYFEV: the dissociation constant (Kd) is at most 0.0001 µM with HLA-A*02:50 (source organism: Escherichia coli 536); at least 20 µM in the test with HLA-B*44:02; at least 20 µM in the test with HLA-A*31:01 (setting [22]); at least 20 µM with HLA-B*07:02 [6] (setting [22]); at least 20 µM with HLA-A*03:01 (setting [22]); at least 20 µM in the test with HLA-B*58:01 (setting [22]). Besides, the Kd is at least 20 µM with HLA-B*46:01 (setting [22]); at least 20 µM with HLA-B*27:05; at least 20 µM with HLA-B*15:01 [10]; at least 20 µM with HLA-A*24:02 [11]; at least 20 µM with HLA-B*40:01 (setting [22]); 0.0042 µM in the test with HLA-A*02:01 [12] (setting [22]). Besides, the Kd in the test with HLA-A*11:01 (setting [22]) was at least 20 µM.
SYHDRRWCF: the results for the Kd with HLA-A*24:02 [13] (setting [23]) and in the test with HLA-C*07:02 (setting [23]) were 0.0101 µM and 0.017 µM, respectively.
Regarding VYAPAGVEL, the Kd in the test with HLA-C*05:01 is at least 20 µM; with HLA-A*24:03 (source organism: Mycobacterium tuberculosis) it was 0.0021 µM; with HLA-C*04:01 (source organism: Mycobacterium tuberculosis C) it was at least 20 µM.
The sequence WYAPVALLF registered a Kd with HLA-A*24:02 [13] (source organism: Bacillus anthracis str. A0488) of at most 0.0001 µM.
For the sequence YMMDDLEL, the half-inhibitory concentration (IC50) with HLA-A*24:02 [14] was 1.06 µM; with HLA-B*35:01 it was at least 20 µM.
For YPRYPGVRC, the Kd with HLA-B*07:02 [15] (source organism: Influenza A virus (A/nt/60/1968(H3N2))) was 0.0103 µM.
In the case of YTYPIAHTA, the Kd was 0.0011 µM with HLA-A*02:50 (source organism: Coxiella burnetii RSA 331), 0.0025 µM with HLA-A*69:01 (setting [24]), 0.004 µM with HLA-C*12:03 and 0.852 µM in the test with HLA-A*02:01 [12] (setting [24]).
YYKDDISYF: the equilibrium dissociation constant (Kd) in the test with HLA-B*07:02 [15] (setting [25]) is at least 20 µM; in the test with HLA-A*02:06 (setting [25]) it was at least 20 µM; with HLA-B*15:01 [2] (setting [25]) it was at least 20 µM; with HLA-A*26:02 (setting [25]), 0.0347 µM; with HLA-B*15:17 (setting [25]), at least 20 µM; with HLA-A*01:01 [16], 1.39 µM. Also, the Kd with HLA-A*31:01 (setting [26]) is at least 20 µM; in the test with HLA-B*57:01 (setting [26]), at least 20 µM; in the test with HLA-B*58:01 (setting [26]) it was at least 20 µM; in the test with HLA-A*68:02 [17], at least 20 µM; with HLA-A*26:01, 0.579 µM; with HLA-B*08:01 [18], at least 20 µM. Further, the Kd with HLA-B*18:01 [19] was at least 20 µM; with HLA-C*07:02 (setting [25]), 0.029 µM; in the test with HLA-A*69:01 (setting [26]), at least 20 µM; with HLA-A*24:03 (setting [26]) it was 0.0037 µM; with HLA-A*02:01 [12] (setting [26]), at least 20 µM; with HLA-B*08:02 it was at least 20 µM. For the same sequence, in the test with HLA-A*11:01 (setting [26]), the Kd was at least 20 µM.
Regarding YYNAFQWAI, the Kd with HLA-C*07:02 (setting [27]) is 0.03 µM; with HLA-C*04:01 (setting [27]), at least 20 µM.
